This passage reports Km of cleavage of the fluorogenic 3B-3C peptide (protease assay, 4 μM protease) results from publication PMC7094522.

The experiment concerns the target Fluorogenic peptide Dabcyl-…-Edans, EV71 polyprotein autoprocessing site between 3B and 3C (human enterovirus 71).

Consider EV71 3C protease mutant H133G (enzyme), for which the Km of cleavage of the fluorogenic 3B-3C peptide (protease assay, 4 μM protease) stood at 25.9 µM.
